Experimental data taken from article PMC7022778.

Target: catalase from Serratia sp. strain I1P (Serratia sp. strain I1P)
Assay: SEC; Superdex-200 in 50 mM Tris HCl pH 8.0 with 0.2 M NaCl, calibrated with standard proteins; native apparent mass compared with the subunit mass by SDS-PAGE

- stoichiometry N: 4
Substance: catalase from Serratia sp. strain I1P (enzyme)
